The test addresses T1, Recombinant human RECQ1 helicase (human, UniProt P46063 1-649).
T1 construct: RECQ1 (RECQL) helicase, human; the gene encodes a 649 amino acid protein of 73 kDa; also called RECQL
T1 sequence (looked up): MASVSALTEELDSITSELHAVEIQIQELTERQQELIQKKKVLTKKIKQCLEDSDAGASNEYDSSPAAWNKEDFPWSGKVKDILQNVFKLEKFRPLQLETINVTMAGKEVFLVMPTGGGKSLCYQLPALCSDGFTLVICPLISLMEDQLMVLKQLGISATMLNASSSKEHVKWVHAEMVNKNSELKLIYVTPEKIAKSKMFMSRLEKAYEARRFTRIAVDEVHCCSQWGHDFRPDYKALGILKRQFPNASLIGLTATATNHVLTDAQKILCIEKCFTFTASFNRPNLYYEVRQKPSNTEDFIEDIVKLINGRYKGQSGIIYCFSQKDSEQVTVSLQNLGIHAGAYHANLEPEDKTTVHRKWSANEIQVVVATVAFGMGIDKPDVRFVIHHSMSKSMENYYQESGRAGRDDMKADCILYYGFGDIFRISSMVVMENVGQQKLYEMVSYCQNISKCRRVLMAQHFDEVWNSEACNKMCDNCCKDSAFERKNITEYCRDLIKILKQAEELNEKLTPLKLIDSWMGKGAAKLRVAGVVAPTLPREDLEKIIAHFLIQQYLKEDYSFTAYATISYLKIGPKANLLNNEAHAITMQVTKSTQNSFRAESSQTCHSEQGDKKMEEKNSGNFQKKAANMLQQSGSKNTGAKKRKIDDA
In words: ELISA; RECQ1 (14 nM; 1 ng/µl, 50 µl) or BSA coated on wells in carbonate buffer pH 9.6; Rad51 0-76 nM in PBS, 0.5% Tween-20, 3% BSA, 1 h at 30°C; detected with rabbit anti-Rad51; Scatchard analysis, apparent Kd; similar signal with DNaseI (100 U/ml) or EtBr (50 µg/ml). Conditions: both partners purified. (In general: In an ELISA, binding on a coated surface is turned into a signal by an enzyme label.)

B1: Purified recombinant human Rad51 (natural protein, UniProt Q06609 1-339, looked up)
chain: MAMQMQLEANADTSVEEESFGPQPISRLEQCGINANDVKKLEEAGFHTVEAVAYAPKKELINIKGISEAKADKILAEAAKLVPMGFTTATEFHQRRSEIIQITTGSKELDKLLQGGIETGSITEMFGEFRTGKTQICHTLAVTCQLPIDRGGGEGKAMYIDTEGTFRPERLLAVAERYGLSGSDVLDNVAYARAFNTDHQTQLLYQASAMMVESRYALLIVDSATALYRTDYSGRGELSARQMHLARFLRMLLRLADEFGVAVVITNQVVAQVDGAAMFAADPKKPIGGNIIAHASTTRLYLRKGRGETRICKIYDSPCLPEAEAMFAINADGVGDAKD
notes: Rad51 strand exchange protein, human; source: provided by Dr. Ian Hickson (Cancer Research UK Laboratories); purified recombinant
In the case of B1, the Kd was 11.9 ± 2.1 nM.

(Values after publication PMC2111050, “Human RECQ1 Is a DNA Damage Responsive Protein Required for Genotoxic Stress Resistance and Suppression of Sister Chromatid Exchanges” (PLoS ONE, 2007).)
